Common to all, as to assay: SEC
The target of assay [1] is CesT-E121A (residues 1-156, E121A) (enteropathogenic E. coli (EPEC) O127:H6 E2348/69) (UniProt P21244).
For assay [2], the target named is CesT-E121A/Y152A (residues 1-156, E121A + Y152A) (enteropathogenic E. coli (EPEC) O127:H6 E2348/69) (UniProt P21244).
In assay [3] the target is CesT-Y152A (residues 1-156, Y152A) (enteropathogenic E. coli (EPEC) O127:H6 E2348/69) (UniProt P21244).
Assay [4] addresses CsrA (residues 1-61), GST tag removed (enteropathogenic E. coli (EPEC) O127:H6 E2348/69) (UniProt P69913).
For assay [5], the target named is CsrA tetra-mutant (residues 1-61, R31A + K38A + H43A + R44A) (enteropathogenic E. coli (EPEC) O127:H6 E2348/69) (UniProt P69913).
Assay [6] concerns the target CsrA-Cdel (residues 1-44) (enteropathogenic E. coli (EPEC) O127:H6 E2348/69) (UniProt P69913).

The substance “CesT-E121A (residues 1-156, E121A) (from UniProt P21244 1-156) (natural protein)” registered a stoichiometry N in assay [1] of 2.
Take “CesT-E121A/Y152A (residues 1-156, E121A + Y152A) (from UniProt P21244 1-156) (natural protein)”: the stoichiometry N in assay [2] came to 2.
With “CesT-Y152A (residues 1-156, Y152A) (from UniProt P21244 1-156) (natural protein)”, in assay [3], the stoichiometry N was found to be 2.
In the case of “CsrA (residues 1-61), GST tag removed, P69913 1-61 (natural protein; other documents disagree on this pair)”, in assay [4], the stoichiometry N came out at 2.
As for “CsrA tetra-mutant (residues 1-61, R31A + K38A + H43A + R44A) (from UniProt P69913 1-61) (natural protein)”, the stoichiometry N in assay [5] was 2.
In assay [6], “CsrA-Cdel (residues 1-44) (from UniProt P69913 1-44) (domain or fragment)” showed a stoichiometry N of 2.

For the origin of these results see publication PMC5864733.
